Measurements from article PMC2668917.

What follows are substances tested against GST-tagged Nup358-IR (Nup358 internal repeat/E3 ligase domain) (UniProt P49792) (assay: SPR).

Kd [nM] | Substance
7 | SUMO-1 modified His-RanGAP1-NΔ419 (from UniProt P46061 420-589; P63165 1-97)
20 | SUMO-1/2 chimera modified His-RanGAP1-NΔ419 (from UniProt P46061 420-589; P63165 1-30; P55854 26-46; P63165 52-97)
36 | SUMO-2 modified His-RanGAP1-NΔ419 (from UniProt P46061 420-589; P55854 1-92)
